Where a chain is given by its changes, count along the chain named.
How the values were obtained:
Assay in all cases: cell_activity; endogenous locus, 293H
SCOH-SH42-b11-C = target: T1, SCOH-SH42-b11-C (artificial)
T1 chain: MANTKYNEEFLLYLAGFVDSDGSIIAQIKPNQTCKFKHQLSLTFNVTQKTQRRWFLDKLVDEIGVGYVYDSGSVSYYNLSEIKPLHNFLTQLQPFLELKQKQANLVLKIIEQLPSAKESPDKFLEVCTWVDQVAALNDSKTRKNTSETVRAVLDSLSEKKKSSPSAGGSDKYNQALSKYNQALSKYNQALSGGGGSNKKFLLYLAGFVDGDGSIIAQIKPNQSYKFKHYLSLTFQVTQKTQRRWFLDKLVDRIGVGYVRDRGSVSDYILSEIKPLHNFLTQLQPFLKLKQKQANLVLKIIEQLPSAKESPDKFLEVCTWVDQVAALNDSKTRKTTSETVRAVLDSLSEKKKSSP
Method: (§1) Human embryonic kidney 293H cells (Invitrogen) were plated at a density of 1×10⁶ cells per 10 cm dish in complete medium (DMEM supplemented with 2 mM L-glutamine, penicillin (100 UI/ml), streptomycin (100 μg/ml), amphotericin B (Fongizone) (0.25 μg/ml) (Invitrogen-Life Science) and 10% FBS). The next day, cells were transfected with 3 μg of single-chain meganuclease expression vector using Lipofectamine 2000 transfection reagent (Invitrogen) according to the supplier's protocol. After 2 to 6 days of incubation at 37° C., cells were trypsinized and genomic DNA extraction was performed with the DNeasy blood and tissue kit (Qiagen) according to the supplier's protocol.
(§2) Human embryonic kidney 293H cells were transfected with a plasmid expressing a single-chain safe harbor meganuclease. After 2 to 6 days of incubation at 37° C., genomic DNA was isolated and PCR was used to amplify the genomic sequence surrounding the meganuclease target site. Sequences were then analyzed for the presence of insertions or deletions events (InDel) in the cleavage site of each safe harbor target.

SCOH-SH41-b11-C = target: T2, SCOH-SH41-b11-C (artificial)
T2 chain: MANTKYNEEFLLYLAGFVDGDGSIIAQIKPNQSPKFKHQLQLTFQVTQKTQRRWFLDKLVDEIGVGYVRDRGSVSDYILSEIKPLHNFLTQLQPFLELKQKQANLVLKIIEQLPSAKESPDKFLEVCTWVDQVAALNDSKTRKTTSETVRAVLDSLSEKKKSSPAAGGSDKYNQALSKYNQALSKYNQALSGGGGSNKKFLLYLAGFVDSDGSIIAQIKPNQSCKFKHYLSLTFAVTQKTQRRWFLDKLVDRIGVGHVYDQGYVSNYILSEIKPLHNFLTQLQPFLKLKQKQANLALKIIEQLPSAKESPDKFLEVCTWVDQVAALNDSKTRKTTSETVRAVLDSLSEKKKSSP
Method: as §1, §2

SCOH-SH4-b1-C = target: T3, SCOH-SH4-b1-C (artificial)
T3 chain: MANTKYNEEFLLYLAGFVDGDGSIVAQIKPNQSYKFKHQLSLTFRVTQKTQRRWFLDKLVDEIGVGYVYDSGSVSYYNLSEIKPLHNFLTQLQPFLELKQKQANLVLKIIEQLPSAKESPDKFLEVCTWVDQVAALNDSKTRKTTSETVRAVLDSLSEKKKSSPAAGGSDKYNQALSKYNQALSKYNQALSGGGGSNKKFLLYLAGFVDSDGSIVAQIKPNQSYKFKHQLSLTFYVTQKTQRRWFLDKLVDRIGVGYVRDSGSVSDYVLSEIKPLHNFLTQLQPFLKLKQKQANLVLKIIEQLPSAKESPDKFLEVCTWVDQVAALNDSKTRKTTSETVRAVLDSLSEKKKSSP
Method: as §1, §2

SCOH-SH3-b1-C = target: T4, SCOH-SH3-b1-C (artificial)
T4 chain: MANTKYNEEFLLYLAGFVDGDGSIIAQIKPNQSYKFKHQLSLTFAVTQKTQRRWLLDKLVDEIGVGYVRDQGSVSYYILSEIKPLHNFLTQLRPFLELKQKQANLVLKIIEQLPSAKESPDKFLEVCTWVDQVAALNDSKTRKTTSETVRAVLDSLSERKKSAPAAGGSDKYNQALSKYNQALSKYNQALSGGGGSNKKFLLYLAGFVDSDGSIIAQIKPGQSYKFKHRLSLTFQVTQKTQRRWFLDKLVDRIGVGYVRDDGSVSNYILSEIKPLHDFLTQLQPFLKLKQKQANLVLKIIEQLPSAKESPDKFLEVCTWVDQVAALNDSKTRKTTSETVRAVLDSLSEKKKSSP
Method: as §1, §2

SCOH-SH52-b12-C = target: T5, SCOH-SH52-b12-C (artificial)
T5 chain: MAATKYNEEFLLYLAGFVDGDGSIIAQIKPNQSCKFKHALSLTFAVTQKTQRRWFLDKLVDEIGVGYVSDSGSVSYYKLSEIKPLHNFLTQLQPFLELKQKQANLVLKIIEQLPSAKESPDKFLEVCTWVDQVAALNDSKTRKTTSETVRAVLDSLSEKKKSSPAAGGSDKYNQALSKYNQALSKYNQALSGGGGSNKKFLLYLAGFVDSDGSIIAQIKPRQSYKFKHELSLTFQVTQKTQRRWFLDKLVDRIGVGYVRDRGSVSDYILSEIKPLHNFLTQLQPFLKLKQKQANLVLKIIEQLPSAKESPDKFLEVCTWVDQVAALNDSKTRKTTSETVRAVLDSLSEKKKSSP
Method: as §1, §2

SCOH-SH43-b12-C = target: T6, SCOH-SH43-b12-C (artificial)
T6 chain: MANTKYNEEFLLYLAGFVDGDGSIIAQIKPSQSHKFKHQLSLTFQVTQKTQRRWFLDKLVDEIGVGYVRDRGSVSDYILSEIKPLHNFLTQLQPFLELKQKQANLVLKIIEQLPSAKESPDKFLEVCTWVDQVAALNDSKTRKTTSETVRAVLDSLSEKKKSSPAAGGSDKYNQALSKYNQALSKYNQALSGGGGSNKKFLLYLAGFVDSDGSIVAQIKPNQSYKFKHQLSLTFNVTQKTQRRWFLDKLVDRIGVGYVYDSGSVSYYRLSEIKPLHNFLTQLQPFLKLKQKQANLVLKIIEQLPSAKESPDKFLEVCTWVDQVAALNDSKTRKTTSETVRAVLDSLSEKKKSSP
Method: as §1, §2

SCOH-SH19 = target: T7, SCOH-SH19 (artificial)
T7 chain: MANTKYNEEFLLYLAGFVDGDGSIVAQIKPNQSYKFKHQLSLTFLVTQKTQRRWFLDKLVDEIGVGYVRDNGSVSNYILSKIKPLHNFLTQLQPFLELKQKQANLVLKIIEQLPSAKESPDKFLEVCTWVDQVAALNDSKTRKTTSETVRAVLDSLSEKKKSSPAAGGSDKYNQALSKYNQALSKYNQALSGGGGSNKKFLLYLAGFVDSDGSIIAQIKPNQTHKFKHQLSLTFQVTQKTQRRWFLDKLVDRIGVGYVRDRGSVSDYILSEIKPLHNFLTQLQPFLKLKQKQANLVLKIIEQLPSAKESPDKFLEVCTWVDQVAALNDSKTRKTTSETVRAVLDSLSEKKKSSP
Method: as §1, §2

SCOH-SH31.2 = target: T8, SCOH-SH31.2 (artificial)
T8 chain: T6 chain with S31N, H34R, Q39A, S41Q, V215I, N235K, Y259R, S261N, Y266D, R268I
Method: as §1, §2

SCOH-SH44-b11-C = target: T9, SCOH-SH44-b11-C (artificial)
T9 chain: T6 chain with S31R, V215I, N235K, Y266N, R268I, E271K
Method: as §1, §2

SCOH-SH39-b11-C = target: T10, SCOH-SH39-b11-C (artificial)
T10 chain: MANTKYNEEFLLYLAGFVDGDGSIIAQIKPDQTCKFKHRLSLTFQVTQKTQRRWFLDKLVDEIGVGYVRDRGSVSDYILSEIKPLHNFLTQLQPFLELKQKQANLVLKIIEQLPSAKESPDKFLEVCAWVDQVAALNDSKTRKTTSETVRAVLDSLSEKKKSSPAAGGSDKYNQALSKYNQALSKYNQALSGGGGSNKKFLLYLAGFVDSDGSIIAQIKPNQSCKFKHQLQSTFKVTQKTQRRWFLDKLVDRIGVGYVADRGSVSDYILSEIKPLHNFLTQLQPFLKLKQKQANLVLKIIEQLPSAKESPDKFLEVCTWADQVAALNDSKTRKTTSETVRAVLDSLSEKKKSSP
Method: as §1, §2

B1: SH42 target (dsDNA)
DNA 1: TATATCCCATGTGAGACATGCAGT
DNA 2: ACTGCATGTCTCACATGGGATATA
- activity (SCOH-SH42-b11-C): 0.7 % InDels

B2: SH41 target (dsDNA)
DNA 1: CCTCTCTTAGGTGAGACGGTACAT
DNA 2: ATGTACCGTCTCACCTAAGAGAGG
- activity (SCOH-SH41-b11-C): 0.4 % InDels

B3: SH4 target (dsDNA)
DNA 1: TTAAAACACTGTACACCATTTTGA
DNA 2: TCAAAATGGTGTACAGTGTTTTAA
- activity (SCOH-SH4-b1-C): 0.2 % InDels

B4: SH3 target (dsDNA)
DNA 1: CCAATACAAGGTACAAAGTCCTGA
DNA 2: TCAGGACTTTGTACCTTGTATTGG
- activity (SCOH-SH3-b1-C): 0.8 % InDels

B5: SH52 target (dsDNA)
DNA 1: CTCCACTGTCTTACCTAATCCAGC
DNA 2: GCTGGATTAGGTAAGACAGTGGAG
- activity (SCOH-SH52-b12-C): 3.2 % InDels

B6: SH43 target (dsDNA)
DNA 1: TAAATACGTCTTACATTATTTTGC
DNA 2: GCAAAATAATGTAAGACGTATTTA
- activity (SCOH-SH43-b12-C): 0.4 % InDels

B7: SH19 target (dsDNA)
DNA 1: GCAAAACATTGTAAGACATGCCAA
DNA 2: TTGGCATGTCTTACAATGTTTTGC
- activity (SCOH-SH19): 0.9 % InDels

B8: SH31 target (dsDNA)
DNA 1: TTGTAATGTCTTACAAGGTTTTAA
DNA 2: TTAAAACCTTGTAAGACATTACAA
- activity (SCOH-SH31.2): 5 % InDels

B9: SH44 target (dsDNA)
DNA 1: AAGAAATGTCTCACAGAATTTTAC
DNA 2: GTAAAATTCTGTGAGACATTTCTT
- activity (SCOH-SH44-b11-C): 3.6 % InDels

B10: SH39 target (dsDNA)
DNA 1: TCCTTCTGTCTTAAGAGATTTATC
DNA 2: GATAAATCTCTTAAGACAGAAGGA
- activity (SCOH-SH39-b11-C): 1.5 % InDels

— US20110239319, “Use of Endonucleases for Inserting Transgenes Into Safe Harbor Loci” (published 2011)
